This note sets out measurements from paper PMC11088704, “Structural basis for the regulation of plant transcription factor WRKY33 by the VQ protein SIB1” (Communications Biology, 2024).

Data set [1] deals with WRKY33_C;SIB1 (SIB1 11-100) (Arabidopsis thaliana;Arabidopsis …, UniProt Q8S8P5;Q9LDH1 345-422;11-100, |). The data set is described as follows: EMSA; SIB1:WRKY33_C 2:1; ternary complex; Kd not fittable; EMSA: NMR buffer (composition not given in material) with 100 mM NaCl, 1.0 ng dsDNA in 20 ul, room temperature 20 min, SIB1:WRKY33_C 2:1; gel in 0.5x TBE, GelRed stain. To be noted: protein: recombinant;recombinant; tags: C-terminal 6xHis;C-terminal 6xHis; copies: 1;1; blunt. A general note: In EMSA bound probe runs differently from free probe, usually more slowly.
Chain of WRKY33_C;SIB1 (SIB1 11-100) (Q8S8P5 345-422, chain 1 of 2): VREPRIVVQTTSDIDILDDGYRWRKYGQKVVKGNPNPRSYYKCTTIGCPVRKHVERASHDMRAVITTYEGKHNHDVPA
Chain of WRKY33_C;SIB1 (SIB1 11-100) (Q9LDH1 11-100, chain 2 of 2): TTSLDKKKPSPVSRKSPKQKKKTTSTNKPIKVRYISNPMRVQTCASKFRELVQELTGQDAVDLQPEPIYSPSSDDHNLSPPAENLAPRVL

Data set [2] has as its target WRKY33_C;SIB1mini (Arabidopsis thaliana;Arabidopsis …, UniProt Q8S8P5;Q9LDH1 345-422;46-69, |). The data set is described as follows: EMSA; SIB1mini present; Kd not fittable; EMSA: NMR buffer (composition not given in material) with 100 mM NaCl, 1.0 ng dsDNA in 20 ul, room temperature 20 min, SIB1:WRKY33_C 2:1; gel in 0.5x TBE, GelRed stain. To be noted: tags: C-terminal 6xHis;; copies: 1;1; blunt.

Chain of WRKY33_C;SIB1mini (Q8S8P5 345-422, chain 1 of 2): as the sequence (Q8S8P5 345-422, chain 1 of 2) above
Chain of WRKY33_C;SIB1mini (Q9LDH1 46-69, chain 2 of 2): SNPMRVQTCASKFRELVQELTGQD

B1: W-box DNA (dsDNA)
DNA 1: AAAGTTGACCAA
DNA 2: TTGGTCAACTTT
B1: the binding signal in data set [1] was ~95 % DNA bound at 1:1 molar ratio (WRKY33_C alone ~80%); in data set [2], ~95 % DNA bound at 1:1 molar ratio (WRKY33 alone ~80%).
